Where “and” joins values, the source holds several entries; their conditions need not be identical. Identical values can stand only once.
Key:
[1] = biological target: Yu2 gp120 HIV-1 Env protein (HIV-1 (strain Yu2)) (UniProt P35961)
[2] = biological target: HIV-1 gp120 (HIV-1)

Substance | IC50 (read off the curve) [1] | contribution of CDR H1 to gp120-binding surface area [2] | contribution of CDR H2/FR3 to gp120-binding surface area [2] | contribution of CDR H3 to gp120-binding surface area [2] | total gp120-binding surface area (Total A 2) [2]
CD4-Ig (Fc fusion) | 0.08 µg/mL and 0.1 µg/mL | – | – | – | –
VRC01 (antibody) | – | 44 Å2 | 701 Å2 | 122 Å2 | 867 Å2

Source: patent US20150044137A1
